Measurements from article PMC8245513, “Recapitulation of selective nuclear import and export with a perfectly repeated 12mer GLFG peptide” (Nature Communications, 2021).

Legend:
[1] = target: T1, human Exportin 1 (human, UniProt O14980 1-1071); assay: NTR-dependent recruitment of a fluorescent cargo into FG phase particles (confocal laser-scanning microscopy); prf.GLFG_(52x12) phase challenged with import cargo (IBB-EGFP; IBB-MBP-GFP-M9) or export cargo (NES-EGFP + RanQ69L) in the absence or presence of the corresponding NTRs (Impβ, transportin, Xpo1); conditions: both partners purified
T1 construct: Exportin 1 (Xpo1/CRM1), human; also called hsXpo1; Xpo1; source: bacterial expression construct, purified (native Ni(II) chelate chromatography)
T1 sequence (O14980 whole entry): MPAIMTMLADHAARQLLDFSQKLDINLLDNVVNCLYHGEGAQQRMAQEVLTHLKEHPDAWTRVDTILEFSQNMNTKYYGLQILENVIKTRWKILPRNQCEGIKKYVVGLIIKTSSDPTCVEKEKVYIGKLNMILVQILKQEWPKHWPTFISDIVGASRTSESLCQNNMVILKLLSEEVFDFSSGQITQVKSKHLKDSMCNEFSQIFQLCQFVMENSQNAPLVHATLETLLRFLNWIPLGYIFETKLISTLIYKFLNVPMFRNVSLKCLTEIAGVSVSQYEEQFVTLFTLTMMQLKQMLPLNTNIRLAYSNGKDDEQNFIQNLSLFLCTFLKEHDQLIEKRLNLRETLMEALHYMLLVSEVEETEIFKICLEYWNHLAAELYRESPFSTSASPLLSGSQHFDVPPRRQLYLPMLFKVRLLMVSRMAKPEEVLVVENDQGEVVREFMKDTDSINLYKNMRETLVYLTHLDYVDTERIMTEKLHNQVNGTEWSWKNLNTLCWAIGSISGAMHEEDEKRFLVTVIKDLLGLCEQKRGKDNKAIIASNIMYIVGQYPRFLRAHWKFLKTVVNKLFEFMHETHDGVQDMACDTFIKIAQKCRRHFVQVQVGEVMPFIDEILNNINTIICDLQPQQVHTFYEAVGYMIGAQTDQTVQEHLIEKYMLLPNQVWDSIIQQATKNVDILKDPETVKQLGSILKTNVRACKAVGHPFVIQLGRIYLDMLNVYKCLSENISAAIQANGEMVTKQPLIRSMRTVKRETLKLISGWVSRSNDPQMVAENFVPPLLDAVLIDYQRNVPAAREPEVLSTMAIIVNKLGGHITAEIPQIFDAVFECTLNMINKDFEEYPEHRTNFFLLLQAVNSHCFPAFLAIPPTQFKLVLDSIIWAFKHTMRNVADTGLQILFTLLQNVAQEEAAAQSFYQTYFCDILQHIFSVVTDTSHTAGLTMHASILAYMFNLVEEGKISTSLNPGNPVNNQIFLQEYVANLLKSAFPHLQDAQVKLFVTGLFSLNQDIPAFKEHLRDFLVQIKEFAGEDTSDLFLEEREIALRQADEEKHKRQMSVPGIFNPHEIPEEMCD

[2] = target: T2, Alexa Fluor 488-labeled rat NTF2 (rat, UniProt P61972 1-127, Alexa Fluor 488 label (site not stated)); assay: partitioning into FG phase particles (FG particle permeation assay, confocal laser-scanning microscopy); FG domain diluted out of 4 M guanidinium hydrochloride into 50 mM Tris/HCl pH 7.5, 150 mM NaCl, 5 mM DTT, 5 µM FG domain; fluorescent probe in the buffer (mCherry 5 µM, probes with partition coefficient ≥2 at 0.75 µM); particles sedimented 60 min; ratio of fluorescence inside to outside the particles; 21 °C; conditions: both partners purified
T2 construct: nuclear transport factor 2 (NTF2), rat, 30-kDa nuclear transport receptor (dimer); The methods say that most NTRs were His-tagged fusions whose tags were cleaved off; also called Alexa488-labeled NTF2; source: bacterial expression construct, purified (native Ni(II) chelate chromatography)
T2 sequence (P61972 whole entry, the tested form may be a part): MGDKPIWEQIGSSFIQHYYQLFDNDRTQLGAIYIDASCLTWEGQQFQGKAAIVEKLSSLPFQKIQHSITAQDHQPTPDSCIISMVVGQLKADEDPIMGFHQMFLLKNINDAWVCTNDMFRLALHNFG

Binder | fold stimulation of the cargo's entry into the prf.GLFG_(52x12) phase by Xpo1 (with RanQ69L) [1] | binding result [2]
SNELALKLAGLDIN (other, PKI-type NES core with short flanks, mEGFP carrier left out; the exact construct (PKI01, pTG-A450) is not printed and may be an optimised NES variant) [NES(PKI)-EGFP] | 3500 fold | 
prf.GLFG_(52x12) (other, C-terminal Cys residue fused for maleimide labelling; also called GLEBS-free, perfectly repeated FG variant; ultimately simplified FG domain) GGLFGGNTQPATGGLFGGNTQPATGGLFGGNTQPATGGLFGGNTQPATGGLFGGNTQPATGGLFGGNTQPATGGLFGGNTQPATGGLFGGNTQPATGGLFGGNTQPATGGLFGGNTQPATGGLFGGNTQPATGGLFGGNTQPATGGLFGGNTQPATGGLFGGNTQPATGGLFGGNTQPATGGLFGGNTQPATGGLFGGNTQPATGGLFGGNTQPATGGLFGGNTQPATGGLFGGNTQPATGGLFGGNTQPATGGLFGGNTQPATGGLFGGNTQPATGGLFGGNTQPATGGLFGGNTQPATGGLFGGNTQPATGGLFGGNTQPATGGLFGGNTQPATGGLFGGNTQPATGGLFGGNTQPATGGLFGGNTQPATGGLFGGNTQPATGGLFGGNTQPATGGLFGGNTQPATGGLFGGNTQPATGGLFGGNTQPATGGLFGGNTQPATGGLFGGNTQPATGGLFGGNTQPATGGLFGGNTQPATGGLFGGNTQPATGGLFGGNTQPATGGLFGGNTQPATGGLFGGNTQPATGGLFGGNTQPATGGLFGGNTQPATGGLFGGNTQPATGGLFGGNTQPATGGLFGGNTQPATGGLFGGNTQPATGGLFGGNTQPATGGLFGGNTQPATC |  | binds
